The values below come from patent publication US8871909B2, “Antibodies inhibiting c-Met dimerization and uses thereof” (Pierre Fabre Medicament, priority 2007, dated 2014).

In one assay the target is T1, HGF-cMet (Homo sapiens, UniProt P08581).
T1 construct: recombinant c-Met-Extra-Cellular Domain (ECD) fused to an human IgG Fc domain
Nature of the assay: HGF-cMet competition assay (ELISA). Format: binding. The following applies: purified murine antibodies. From the text:
FIG. 54: HGF-cMet competition assay. In this ELISA-based assay, recombinant Fc-cMET residual binding to plastic coated HGF in the presence of purified murine monoclonal antibodies 11E1, 224G11 and 227H1 was detected with […] and measured at 450 nm;
FIG. 58: HGF-cMet competition assay of 227H1 murine and recombinant antibodies. In this ELISA-based assay, recombinant Fc-cMet residual binding to plastic coated HGF in the presence of the different forms of the 227H1 antibody was detected with a biotinylated unrelated anti-cMet antibody. Purified murine 227H1 monoclonal antibody, chimeric and HZ4VH-derived humanized 227H1-derived recombinant antibodies were tested and compared for their abilities to compete with HGF-cMet binding when measured at 450 nm;
Humanization of the anti-cMet antibodies were performed independently for each chain and sequentially, regarding to the analysed amino acids in each variable domain. The humanization process was evaluated in a first attempt in an ELISA-based binding assay to recombinant Fc-cMet; binding activities the humanized antibodies being compared to the recombinant chimeric antibody. In a second attempt, anti-cMet humanized antibodies were evaluated for their abilities to displace the Fc-cMet binding onto plastic-coated recombinant HGF; this competition assay allowing the direct comparison of murine, chimeric and humanized versions of the anti-cMet antibodies.
These two assays were used to characterize the recombinant chimeric and humanized versions of the murine anti-cMet antibodies. To this end, briefly, anti-cMet variable domains, either murine or humanized, were cloned into LONZA's pCONplus expression vectors series and recombinant IgG1/κ-derived antibodies were expressed in CHO cells. […] Both direct binding and HGF-competition assays were assessed to better characterize recombinant chimeric or humanized versions.
For orientation: In an ELISA, binding on a coated surface is turned into a signal by an enzyme label.

For the next assay, the system named is HUVEC. Kind of assay: HUVEC tube formation. The format is cell-based. The note with it: HGF 50 ng/ml. Here is the method:
For evaluation of HUVEC tube formation, 25000 cells incubated 30 min with antibodies to be tested were plated in 48-well plates coated with matrigel. Then HGF 50 ng/ml was added and plates were incubated at 37° C. Medium was then harvested and […] CMFDA was added for 15 min before microscopic observation.

Assay [1] has as its target T2, recombinant c-Met-Extra-Cellular Domain (ECD) fused to an human IgG Fc domain (Homo sapiens, UniProt P08581).
T2 construct: recombinant c-Met-Extra-Cellular Domain (ECD) fused to an human IgG Fc domain (R&D Systems) as antigen; purchased R&D Systems
Kind of assay: Determination of affinity constants (KD) by Biacore analysis. Format: binding. The note with it: text summary of table 4; read-out: affinity for recombinant c-Met-Fc fusion protein. The source says: The binding affinity of purified 11E1 and 224G11 antibodies was investigated by BIAcore X using recombinant c-Met-Extra-Cellular Domain (ECD) fused to an human IgG Fc domain (R&D Systems) as antigen (MW=129 kDa). As both c-Met-Fc fusion proteins and antibodies are bivalent compounds, Fab fragments of mAbs 11E1 and 224G11 (MW=50 kDa) were generated by papain cleavage, purified and used in this assay to avoid interference with avidity parameter. For the assay, an anti-Tag histidine capture antibody was coated on CM5 sensorchips. The running buffer was HBS-EP, the flow rate was 30 μl/min and the test was performed at 25° C. Soluble c-Met (ECD_M1)2-Fc-(HHHHHH)2 antigen was captured on the sensorchip (around 270 RU), and the antibodies to be tested were used in solution as analytes. The sensorship was regenerated using Glycine, HCl pH 1.5 buffer on both flowcells for half a minute.
(In general: Surface plasmon resonance follows binding to a sensor surface in real time, without labels.)

The subject of the next assay is SK-HEP-1 cells. Kind of assay: Scatter assay. The format is cell-based. The following applies: SK-HEP-1, antibody 10 μg/ml; for inhibitory effect on cell scattering in presence of HGF: HGF 100 ng/ml; for agonist effect on cell scattering, alone: no HGF. As to the method:
SK-HEP-1 cells were seeded at low density (1·10^4 cells/well) in a 24-well plate in DMEM with 10% FCS and grown for 24 hours before addition, at the same time, of HGF (100 ng/ml) and antibodies to be tested (10 μg/ml). After 72 hours incubation, colonies were fixed and stained with 0.2% crystal violet in methanol and assessed for scattering visually. Each tested condition was tested as a triplicate and 3 independent experiments were performed.

The test system of assay [2] is NCI-H441. Kind of assay: In vivo combination of 224G11 and Navelbine on NCI-H441 xenograft model (Example 19). Also on record: species or system Athymic nude mice. The following applies: day 41 post first injection. Here is the method: NCI-H441 cells from ATCC were routinely cultured in RPMI 1640 medium, 10% FCS, 1% L-Glutamine. Cells were split two days before engraftment being in exponential phase of growth. Ten million NCI-H441 cells were engrafted to Athymic nude mice. […] Mice were treated i.p. either with a loading dose of 2 mg of 224G11 Mab/mouse and then twice a week with 1 mg of antibody/mouse until Day 38 or with 3 injections of Navelbine® (D5, D12, D19) at 8 mg/kg. A third group administered with the combine treatment was also included. Navelbine® was given by i.p. injections. Tumor volume was measured twice a week and calculated by the formula: π/6×length×width×height and animal weights were monitored every day over the period of Navelbine® treatment. Statistical analysis was performed at each measured time using either a t-test or a Mann-Whitney test. […] Results are represented in FIG. 45.

Another assay relates to MDA-MB-231. Kind of assay: MDA-MB-231 cells co-implanted with MRC5 cells xenograft. The format is in vivo, Athymic nude mice. The note with it: 2 mg loading dose then 1 mg twice a week i.p. As to the method:
[…] and MRC5 cells from ATCC were both cultured in DMEM medium, 10% FCS, 1% L-Glutamine. Cells were split two days before engraftment being in exponential phase of growth. Five million MDA-MB-231 cells and 500 000 MRC5 cells were co-injected s.c. to Athymic nude mice. […] Mice were treated i.p. either with a loading dose of 2 mg of 224G11 Mab/mouse and then twice a week with 1 mg of antibody/mouse. Tumor volume was measured twice a week and calculated by the formula: π/6×length×width×height.

For assay [3], the system named is NCI-H441. Nature of the assay: NCI-H441 xenograft model (Example 11). From the text: The evaluation of anti-c-met antibodies on the in vivo activity of this non autocrine cell line could give some insights about their potency to impact on c-met dimerization.
Another assay has as its system NCI-H441 cells. Nature of the assay: Wound healing (migration) assay with NCI-H441 cells. Format: cell-based. As to the method:
HGF stimulates motility. To determine whether the anti-HGF antibodies were able to inhibit migration, NCI-H441 cells were grown to high density and a gap was introduced with a P200 pipette tip. Cells were then stimulate to migrate across the gap with HGF (100 ng/ml) in presence or in absence of 11E1. Wells with 11E1 alone were also evaluated. Each tested condition was evaluated as a sextuplicate and 3 independent experiments were performed. After an overnight incubation, cells were visualized with an Axio Vision Camera (objective ×4).

T2 sequence (P08581 25-932 limits assumed): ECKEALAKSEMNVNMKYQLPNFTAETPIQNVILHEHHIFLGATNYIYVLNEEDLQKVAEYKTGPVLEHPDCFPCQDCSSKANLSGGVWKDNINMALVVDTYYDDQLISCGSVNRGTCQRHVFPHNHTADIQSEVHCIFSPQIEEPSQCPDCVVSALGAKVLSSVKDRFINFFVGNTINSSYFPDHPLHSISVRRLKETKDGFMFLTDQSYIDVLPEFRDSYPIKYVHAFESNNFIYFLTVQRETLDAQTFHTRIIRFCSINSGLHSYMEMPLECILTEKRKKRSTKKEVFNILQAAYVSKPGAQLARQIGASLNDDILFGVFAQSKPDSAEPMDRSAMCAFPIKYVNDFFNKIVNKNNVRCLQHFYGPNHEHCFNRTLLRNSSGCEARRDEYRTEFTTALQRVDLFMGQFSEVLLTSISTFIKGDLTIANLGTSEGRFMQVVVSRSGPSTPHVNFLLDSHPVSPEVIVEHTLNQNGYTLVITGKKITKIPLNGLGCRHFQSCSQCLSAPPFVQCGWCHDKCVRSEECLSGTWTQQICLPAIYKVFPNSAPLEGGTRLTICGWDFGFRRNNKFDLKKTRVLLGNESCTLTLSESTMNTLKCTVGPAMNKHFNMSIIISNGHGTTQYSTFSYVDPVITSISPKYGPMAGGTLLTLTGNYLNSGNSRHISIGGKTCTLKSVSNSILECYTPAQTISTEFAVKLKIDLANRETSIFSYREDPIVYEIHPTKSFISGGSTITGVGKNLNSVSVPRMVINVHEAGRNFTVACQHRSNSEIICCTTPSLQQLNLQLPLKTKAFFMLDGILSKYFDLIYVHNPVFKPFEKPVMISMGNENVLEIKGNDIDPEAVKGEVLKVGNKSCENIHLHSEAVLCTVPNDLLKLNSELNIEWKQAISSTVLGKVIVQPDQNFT
T1 sequence (P08581 25-932 limits assumed): as above

B1: 224G11: murine anti-c-Met monoclonal antibody, IgG1 kappa; heavy chain SEQ ID No. 18, light chain SEQ ID No. 21 (antibody, V domains shown)
VH: EVQLQQSGPELVKPGASVKISCKTSGYIFTAYTMHWVRQSLGESLDWIGGIKPNNGLANYNQKFKGKATLTVDKSSSTAYMDLRSLTSEDSAVYYCARSEITTEFDYWGQGTALTVSS
VL: DIVLTQSPASLAVSLGQRATISCRASESVDSYANSFMHWYQQKPGQPPKLLIYRASNLESGIPARFSGSGSRTDFTLTINPVEADDVATYYCQQSKEDPLTFGSGTKLEMK
modifications: mus musculus
For the molecule B1, the “maximum of HGF binding displacement” value with HGF-cMet (at high antibody concentration) is listed as 100%. Besides, the “effect on HGF-induced tube formation” value with HUVEC is listed as “inhibit dramatically”. For the same molecule, in assay [1], the Kd was approximately 0.04 nM. In the assay on SK-HEP-1 cells, the “inhibitory effect on cell scattering in presence of HGF” value is on record as “very significant inhibitory effect” and the “agonist effect on cell scattering, alone” value was “No agonistic effect”. Moreover, the “reduction of average tumor volume” value in the assay with NCI-H441 [2] is 72%. In the assay with MDA-MB-231, the “median tumors growth compared to the control group” value was “significant difference in median tumors growth”. Moreover, the “inhibition of in vivo growth of NCI-H441” value in the assay on NCI-H441 [3] is listed as “inhibited significantly”.

B2: 11E1: murine anti-c-Met monoclonal antibody, IgG1 kappa; heavy chain SEQ ID No. 62, light chain SEQ ID No. 63 (antibody, V domains shown)
VH: QVQLQQSGAELAKPGASVKMSCKASGYTFTSYWMNWVKQRPGQGLEWIGYINPTTGSTDYNQKLKDKATLTADKSSNTAYMQLSSLTSEDSAVYYCAIGGYGSWFAYWGQGTLVTVSA
VL: QIVLTQSPAIMSASPGEKVTLTCSASSSVSSTYLYWYQQKPGSSPKLWIYTTSILASGVPARFSGSGSGTSYSLTISSMETEDAASYFCHQWSSYPFTFGSGTKLDIK
modifications: mus musculus
Regarding B2, in the assay with HGF-cMet, the “HGF-cMet binding competition activity” value is given as “moderate, not full but reliable competitive activity”. Moreover, the “effect on cell migration in presence of HGF” value with NCI-H441 cells (NCI-H441, HGF 100 ng/ml) is “full antagonist”. Besides, the “agonist effect on cell migration, added alone” value in the assay with NCI-H441 cells (NCI-H441, no HGF) is on record as “no agonist effect”. For the same molecule, the “effect on HGF-induced tube formation” value in the assay on HUVEC is reported as “inhibit dramatically”. Further, the Kd in assay [1] is approximately 0.04 nM. Moreover, in the assay on SK-HEP-1 cells, the “inhibitory effect on cell scattering in presence of HGF” value was “very significant inhibitory effect” and the “agonist effect on cell scattering, alone” value is given as “No agonistic effect”. The “inhibition of in vivo growth of NCI-H441” value in the assay with NCI-H441 [3] is “inhibited significantly”.
